Biological target: the molecule itself
Assay: SEC-MALS

B1: DHR10-mica6-NC (designed binder)
chain: GSGGSSEVLELAIRLIKEVVENAQREGYDISEAAAAAAEAFAAVAEAAKAAGITSSEVLELAIRLIKEVVENAQREGYDISEAAAAAAEAFAAVAEAAKAAGITSSEVLELAIRLIKEVVENAQREGYDISEAAAAAAEAFAAVAEAAKAAGIASSEVLELAIRLIKEVVENAQREGYDISEAAAAAAEAFAAVAEAAKAAGITSSEVLELAIRLIKEVVENAQREGYDISEAAAAAAEAFAAVAEAAKAAGIASSEVLELAIRLIKEVVENAQREGYDISEAAAAAAEAFAAVAEAAKAAGIGWE
- stoichiometry N: 2.1 times the MW of a monomer

Reference: paper PMC6948101 (Nature, 2019)
